Laboratory results as given in US20100263089A1, “USE OF P[…] FROM A PA1B LEGUME ALBUMEN AS INSECTICIDE” (Institut National de la Recherche Agronomique, priority 1998, published 2010).

Key:
[1] = test system: humans or higher animals; details: present in legumes of the conventional diet; no test described; cited from earlier work
[2] = Stability of the entomotoxic activity (storage in dry seeds, heating)
Description: In addition, this activity is not affected by heating to 100° C.

## PAlb protein: pea albumin PA1b (SEQ ID NO: 7) described by HIGGINS et al. (ASCNGVCSPFEMPPCGTSACRCIPVGLVVGYCRNPSG)
[1]
  toxicity for humans or higher animals: not toxic
[2]; dry seeds stored for several years
  entomotoxic/insecticidal activity after storage: conserves its insecticidal activity
[2]; heating to 100° C.
  entomotoxic/insecticidal activity after heating: not affected
